B1: SENP2 (protein)
chain: MVTSACNGTRNVAPSGEVFSNSSSCELTGSGSWNNMLKLGNKSPNGISDYPKIRVTVTRDQPRRVLPSFGFTLNSEGCNRRPGGRRHSKGNPESSLMWKPQEQAVTEMISEESGKGLRRPHCTVEEGVQKEEREKYRKLLERLKESGHGNSVCPVTSNYHSSQRSQMDTLKTKGWGEEQNHGVKTTQFVPKQYRLVETRGPLCSLRSEKRCSKGKITDTEKMVGIRFENESRRGYQLEPDLSEEVSARLRLGSGSNGLLRRKVSIIETKEKNCSGKERDRRTDDLLELTEDMEKEISNALGHGPQDEILSSAFKLRITRGDIQTLKNYHWLNDEVINFYMNLLVERNKKQGYPALHVFSTFFYPKLKSGGYQAVKRWTKGVNLFEQEIILVPIHRKVHWSLVVIDLRKKCLKYLDSMGQKGHRICEILLQYLQDESKTKRNSDLNLLEWTHHSMKPHEIPQQLNGSDCGMFTCKYADYISRDKPITFTQHQMPLFRKKMVWEILHQQLL

Columns and labels:
[1] = system: sentrin-modified proteins (Sentrin-1 conjugates)
[2] = target: T1, Sentrinized PML (construct not stated), P29590
T1 chain: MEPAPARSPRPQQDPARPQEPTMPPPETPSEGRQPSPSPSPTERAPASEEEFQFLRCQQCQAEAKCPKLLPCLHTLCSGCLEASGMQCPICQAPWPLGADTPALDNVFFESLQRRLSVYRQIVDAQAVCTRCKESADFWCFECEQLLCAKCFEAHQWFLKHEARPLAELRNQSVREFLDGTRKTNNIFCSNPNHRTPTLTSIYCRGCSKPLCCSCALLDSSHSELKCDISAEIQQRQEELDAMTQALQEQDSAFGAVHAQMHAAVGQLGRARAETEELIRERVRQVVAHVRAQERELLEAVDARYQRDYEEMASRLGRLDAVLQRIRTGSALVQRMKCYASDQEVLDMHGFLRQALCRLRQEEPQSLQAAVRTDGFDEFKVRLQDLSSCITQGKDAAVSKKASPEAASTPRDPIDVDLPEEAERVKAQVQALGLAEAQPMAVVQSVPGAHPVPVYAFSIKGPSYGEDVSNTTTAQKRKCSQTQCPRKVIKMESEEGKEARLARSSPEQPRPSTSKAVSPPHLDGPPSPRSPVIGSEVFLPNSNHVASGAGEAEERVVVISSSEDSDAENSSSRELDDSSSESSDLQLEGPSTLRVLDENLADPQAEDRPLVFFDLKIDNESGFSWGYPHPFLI

[3] = target: T2, sentrinized RanGAP (construct not stated), P46060
T2 chain: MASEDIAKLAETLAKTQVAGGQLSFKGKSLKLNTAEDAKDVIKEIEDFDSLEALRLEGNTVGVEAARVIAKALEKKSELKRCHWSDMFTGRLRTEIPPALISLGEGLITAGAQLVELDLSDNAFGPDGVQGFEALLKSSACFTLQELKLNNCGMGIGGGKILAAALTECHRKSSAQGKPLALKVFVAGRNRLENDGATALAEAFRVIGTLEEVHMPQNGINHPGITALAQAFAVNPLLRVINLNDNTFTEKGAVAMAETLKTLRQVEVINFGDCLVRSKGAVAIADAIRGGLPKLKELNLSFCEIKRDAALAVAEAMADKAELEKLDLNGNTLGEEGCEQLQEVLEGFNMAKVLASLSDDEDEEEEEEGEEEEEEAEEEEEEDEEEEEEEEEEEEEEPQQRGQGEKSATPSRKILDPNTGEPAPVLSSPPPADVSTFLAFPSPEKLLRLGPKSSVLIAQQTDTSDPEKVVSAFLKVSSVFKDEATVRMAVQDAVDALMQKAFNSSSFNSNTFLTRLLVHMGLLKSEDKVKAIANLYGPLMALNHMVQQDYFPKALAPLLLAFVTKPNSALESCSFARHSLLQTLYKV

Molecule | protease activity against sentrin-modified proteins [1] | effect on sentrinized PML [2] | effect on sentrinized RanGAP [3]
HsUlp1 (full length, 371 aa) | extensive studies indicated that HsUlp I had no activity against sentrin-modified proteins | – | –
B1 | – | Sentrinized PML, a tumor suppressor that resides in the nucleus, was selectively affected by SENP2 | sentrinized RanGAP remained intact

Reference: US20060134741
